Experiments:
[1] = Test on reducing-power formation; assay type: biochemical; conditions: 1% (w/v) maltotetraose, 0.25 unit/g substrate, 35° C., pH 6.0 (pH 8.4 for A19)
Method: The following test was carried out to study whether the polypeptide having α-isomaltosylglucosaccharide-forming enzyme activity had the ability of forming reducing-power or not. To a 1% (w/v) aqueous solution of maltotetraose as a substrate was added 0.25 unit/g substrate, d.s.b., of either of purified polypeptide specimen of α-isomaltosylglucosaccharide-forming enzyme from Bacillus globisporus C11 obtained by the method in Experiment 1-3, Bacillus globisporus N75 obtained by the method in Experiment2-3, or Arthrobacter globiformis A19 obtained by the method in Experiment 3-3, and incubated at 35° C. and at pH 6.0, except that pH 8.4 was used for the enzyme from Arthrobacter globiformis A19. During the reaction, a portion of each reaction mixture was sampled at prescribed time intervals and measured for reducing power after keeping at 100° C. for 10 minutes to stop the enzymatic reaction. Before and after the enzymatic reaction, the reducing sugar content and total sugar content were respectively quantified by the Somogyi-Nelson method and anthrone-sulfuric acid method. The percentage of forming reducing power was calculated by the following equation: Percentage of forming reducing power (%)=(AR/AT−BR/BT)×100 Equation: • AR: Reducing sugar content after enzymatic reaction. • AT: Total sugar content after enzymatic reaction. • BR: Reducing sugar content before enzymatic reaction. • BT: Total sugar content before enzymatic reaction.

[2] = Isoelectric point by isoelectrophoresis (2% ampholine gel); assay type: physicochemical; conditions: gel containing 2% (w/v) ampholine
Excerpt: Purified specimens of the polypeptide having α-isomaltosylglucosaccharide-forming enzyme activity from Bacillus globisporus C11 obtained by the method in Experiment 1-3, Bacillus globisporus N75 obtained by the method in Experiment 2–3, and Arthrobacter globiformis A19 obtained by the method in Experiment 3-3 were subjected to isoelectrophoresis using a gel containing 2% (w/v) ampholine commercialized by Amersham Biosciences K. K., Tokyo, Japan (old name, Amersham Pharmacia Biotech), and then measured pHs of protein bands and gel to determine their isoelectric points.

[3] = Effect of temperature and pH on α-isomaltosylglucosaccharide-forming enzyme activity; assay type: biochemical; conditions: for Optimum temperature: pH 6.0 for 60 minutes; for Optimum pH: incubated at 35° C. for 60 minutes
Method: The two types of enzymatic activities described above were measured as following. The activity of α-isomaltosylglucosaccharide-forming enzyme was measured by the following assay: A substrate solution was prepared by dissolving maltotriose in 100 mM acetate buffer (pH 6.0) to give a concentration of 2% (w/v). A reaction mixture was prepared by mixing 0.5 ml of the substrate solution and 0.5 ml of an enzyme solution, and incubated at 35° C. for 60 minutes. After stopping the reaction by boiling for 10 minutes, the amount of maltose formed in the reaction mixture was determined by high-performance liquid chromatography (HPLC). One unit of α-isomaltosylglucosaccharide-forming activity was defined as the amount of the enzyme that forms one μmole of maltose per minute under the above conditions. HPLC was carried out using “SHODEX KS-801 column”, Showa Denko K. K., Tokyo, Japan, at a column temperature of 60° C. and a flow rate of 0.5 ml/minutes of water, and using “RI-8012”, a differential refractometer commercialized by Tosoh Corporation, Tokyo, Japan.
The effect of temperature and pH on the α-isomaltosylglucosaccharide-forming enzyme activity was examined in accordance with the assay for the α-isomaltosylglucosaccharide-forming enzyme activity under various temperature and pH conditions. The effect of temperature was conducted in the presence or absence of 1 mM Ca^2+. […] The optimum temperature of the polypeptide having α-isomaltosylglucosaccharide-forming enzyme activity from a strain C11 was about 45° C. (in the absence of Ca^2+) and about 50° C. (in the presence of Ca^2+) when incubated at pH 6.0 for 60 minutes, and the optimum pH was about 6.0 when incubated at 35° C. for 60 minutes. The optimum temperature of the polypeptide having α-isomaltosylglucosaccharide-forming enzyme activity from a strain N75 was about 50° C. (in the absence of Ca^2+) and about 55° C. (in the presence of Ca^2+) when incubated at pH 6.0 for 60 minutes, and the optimum pH was about 6.0 when incubated at 35° C. for 60 minutes. The optimum temperature of the polypeptide having α-isomaltosylglucosaccharide-forming enzyme activity from a strain A19 was about 60° C. (in the absence of Ca^2+) and about 65° C. (in the presence of Ca^2+) when incubated at pH 8.4 for 60 min, and the optimum pH was about 8.4 when incubated at 35° C. for 60 minutes.

[4] = Thermal stability and pH stability (residual enzyme activity); assay type: physicochemical; conditions: 20 mM acetate buffer pH 6.0, 60 minutes
Method: The thermal stability of the polypeptide having α-isomaltosylglucosaccharide-forming enzyme activity was determined by incubating the testing polypeptide solution in 20 mM acetate buffer, pH6.0 (in the case of the polypeptide from a strain A19, 20 m M Glycine-NaOH buffer, pH 8.0) at prescribed temperatures for 60 minutes in the presence or absence of 1 mM Ca^2+, cooling with water the resulting polypeptide solutions, and assaying the residual enzyme activity of each solution. The pH stability of the polypeptide having α-isomaltosylglucosaccharide-forming enzyme activity was determined by keeping the testing polypeptide solutions in 50 mM buffer having prescribed pHs at 4° C. for 24 hours, adjusting the pH of each solution to 6.0 (in the case of the polypeptide from a strain A19, pH 8.0), and assaying the residual enzyme activity of each solution. […] The thermal stability of the polypeptide having α-isomaltosylglucosaccharide-forming enzyme activity from a strain C11 was up to about 40° C. (in the absence of Ca^2+) and about 45° C. (in the presence of Ca^2+), and pH stability of about 5.0 to about 10.0. The thermal stability of the polypeptide having α-isomaltosylglucosaccharide-forming enzyme activity from a strain N75 was up to about 45° C. (in the absence of Ca^2+) and about 50° C. (in the presence of Ca^2+), and pH stability of about 5.0 to about 9.0. The thermal stability of the polypeptide having α-isomaltosylglucosaccharide-forming enzyme activity from a strain A19 was up to about 55° C. (in the absence of Ca^2+) and about 60° C. (in the presence of Ca^2+), and pH stability of about 5.0 to about 9.0.

B1: Enzyme of Strain C11: purified polypeptide having α-isomaltosylglucosaccharide-forming enzyme activity from Bacillus globisporus C11 (Experiment 1-3); contains SEQ ID NO: 1 (protein)
chain: YVSSLGNLISSSVTGDTLTLTVDNGAEPSDDLLIVQAVQNGILKVDYRPNSITPSAKTPMLDPNKTWSAVGATINTTANPMTITTSNMKIEITKNPVRMTVKKADGTTLFWEPSGGGVFSDGVRFLHATGDNMYGIRSFNAFDSGGDLLRNSSNHAAHAGEQGDSGGPLIWSTAGYGLLVDSDGGYPYTDSTTGQMEFYYGGTPPEGRRYAKQNVEYYIMLGTPKEIMTDVGEITGKPPMLPKWSLGFMNFEWDTNQTEFTNNVDTYRAKNIPIDAYAFDYDWKKYGETNYGEFAWNTTNFPSASTTSLKSTMDAKGIKMIGITKPRIVTKDASANVTTQGTDATNGGYFYPGHNEYQDYFIPVTVRSIDPYNANERAWFWNHSTDALNKGIVGWWNDETDKVSSGGALYWFGNFTTGHMSQTMYEGGRAYTSGAQRVWQTARTFYPGAQRYATTLWSGDIGIQYNKGERINWAAGMQEQRAVMLSSVNNGQVKWGMDTGGFNQQDGTTNNPNPDLYARWMQFSALTPVFRVHGNNHQQRQPWYFGSTAEEASKEAIQLRYSLIPYMYAYERSAYENGNGLVRPLMQAYPTDAAVKNYTDAWMFGDWLLAAPVVDKQQTSKDIYLPSGSWIDYARGNAITGGQTIRYSVNPDTLTDMPLFIKKGAIIPTQKVQDYVGQASVTSVDVDVFPDTTQSSFTYYDDDGASYNYESGTYFKQNMTAQDNGSGSLSFTLGAKSGSYTPALQSYIVKLHGSAGTSVTNNSAAMTSYASLEALKAAAGEGWATGKDIYGDVTYVKVTAGTASSKSIAVTGVAAVSATTSQYEAEDASLSGNSVAAKASINTNHTGYTGTGFVDGLGNDGAGVTFYPKVKTGGDYNVSLRYANASGTAKSVSIFVNGKRVKSTSLANLANWDTWSTQSETLPLTAGVNVVTYKYYSDAGDTGNVNIDNITVPFAPIIGKYEAESAELSGGSSLNTNHWYYSGTAFVDGLSAVGAQVKYNVNVPSAGSYQVALRYANGSAATKTLSTYINGAKLGQTSFTSPGTNWNVWQDNVQTVTLNAGANTIAFKYDAADSGNINVDRLLLSTSAAGTPVSEQNLLDNPGFERDTSQTNNWIEWHPGTQAVAFGVDSGSTTNPPESPWSGDKRAYFFAAGAYQQSIHQTISVPVNNVKYKFEAWVRMKNTTPTTARAEIQNYGGSAIYANISNSGVWKYISVSDIMVTNGQIDVGFYVDSPGGTTLHIDDVRVTKQ
modifications: Bacillus globisporus C11
Q: What does the source list for B1?
A: Percentage of forming reducing power ([1]; reaction time 0 hour): 0.0%; Percentage of forming reducing power ([1]; reaction time 1 hour): 0.1%; Percentage of forming reducing power ([1]; reaction time 2 hours): 0.0%; Percentage of forming reducing power ([1]; reaction time 4 hours): 0.1%; Percentage of forming reducing power ([1]; reaction time 8 hours): 0.0%; Isoelectric point [2]: about 5.2±0.5; Optimum temperature ([3]; in the absence of Ca2+): about 45 °C; Optimum temperature ([3]; in the presence of 1 mM Ca2+): about 50 °C; Optimum pH [3]: about 6.0; Thermal stability ([4]; in the absence of Ca2+): up to 40 °C

B2: Enzyme of Strain N75: purified polypeptide having α-isomaltosylglucosaccharide-forming enzyme activity from Bacillus globisporus N75 (Experiment 2-3); contains SEQ ID NO: 2 (protein)
chain: HVSALGNLLSSAVTGDTLTLTIDNGAEPNDDILVLQAVQNGILKVDYRPNGVAPSADTPMLDPNKTWPSIGAVINTASNPMTITTPAMKIEIAKNPVRLTVKKPDGTALLWEPPTGGVFSDGVRFLHGTGDNMYGIRSFNAFDSGGDLLRNSSTQAARAGDQGNSGGPLIWSTAGYGVLVDSDGGYPFTDEATGKLEFYYGGTPPEGRRYTKQDVEYYIMLGTPKEIMSGVGEITGKPPMLPKWSLGFMNFEWDLNEAELKNHVDTYRAKNIPIDGYAIDFDWKKYGENNYGEFAWNTANFPSAATTALKSQMDAKGIKMIGITKPRIATKDFSNNPTVQGTDAASGGYFYPGHSEYKDYFIPVFVRSIDPYNPAARSWFWNHSKDAFDKGIVGWWNDETDAVSSGGASYWFGNFTTGHMSQALYEGQRAYTSNAQRVWQTARTFYPGAQRYATTLWSGDIGIQYTKGERINWAAGMQEQRAVMLSSINNGQVKWGMDTGGFNQQDGTTNNPNPDLYARWMQFSALTPVFRVHGNNHQQRQPWYYGSTAEEASKEALQLRYSLIPYMYAYERSAYENGNGLVRPLMQEYPADANAKNYLDAWMFGDWLLAAPVVEKQQTSKEIYLPAGTWIDYNRGTVLTGGQKISYAVNPDTLTDIPLFIKKGAIIPSQKVQDYVGQAPVQTVDVDVFPNTAQSSFTYYDDDGSSYNYESGAYFKQLMTAQDNGSGALSFTLGAKTGTYSPALQSYIVKLHGAAGASVTSNGAALASYASLQALKASASEGWAKGKDIYGDVTYVKLSAGAAAAKAIAVTGNSPVSVADVQYEAEEASLSGNTTATKATVNTNHAGYTGSGFVDGLSNPGAAVTFYPKVKTGGDYNVSLRYANSTGAAKSVSIFVNGKRVKSTSLANLPNWDTWGTQAETLPLTAGTNVVTYKFYSDAGDTGSVNLDNITVPFAPAIGKYEAESAELSGGSTVNQNHWFYSGTAFVDGLTAPGAQVKYTVNAPAAGSYQIALRYANGTGAAKTLSTYVNGTKLGQTAFASPGGNWNVWQDSVQTVALAAGTNTIAFKYDAGDSGSGSVNLDRLLLSAAAPGVPVSEQNLLDNGGFERDPSQSSNWTEWHPASQAIAYGIDSGSGMNPPESPWAGDKRAYFYAAGPYQQSIHQTVSVPVNNAKYKFEAWVLLKNTTPTTARVEIQNYGGSPIFTNISKDGVWKYISVSDIQVTNGQIDIGFYVDSPGGTTLHIDDVRVTKQ
modifications: Bacillus globisporus N75
Q: Which results are given for B2?
A: Percentage of forming reducing power ([1]; reaction time 0 hour): 0.0%; Percentage of forming reducing power ([1]; reaction time 1 hour): 0.1%; Percentage of forming reducing power ([1]; reaction time 2 hours): 0.0%; Percentage of forming reducing power ([1]; reaction time 4 hours): 0.0%; Percentage of forming reducing power ([1]; reaction time 8 hours): 0.1%; Isoelectric point [2]: about 7.3±0.5; Optimum temperature ([3]; in the absence of Ca2+): about 50 °C; Optimum temperature ([3]; in the presence of 1 mM Ca2+): about 55 °C; Optimum pH [3]: about 6.0; Thermal stability ([4]; in the presence of 1 mM Ca2+): ≤ 50 °C

From patent US7211422B2, “Polypeptide having α-isomaltosylglucosaccharide synthase activity” (Kabushiki Kaisha Hayashibara Seibutsu Kagaku Kenkyujo, priority 2001, dated 2007)
